Measurements as given in patent publication US20250195679A1, “ANTIBODY-DRUG CONJUGATE AND USE THEREOF” (SHANGHAI HUAOTA BIOPHARMACEUTICAL CO., LTD., priority 2022, published 2025).

Tested on: MDA-MB-231 human breast cancer cells
Assay: MDA-MB-231 triple-negative breast cancer CDX mouse efficacy model (Example 8)
Type: in vivo, NPG mice
Conditions: for inhibition of growth of MDA-MB-231 breast cancer: 2.5 and 5 mg/kg i.p. BIW, 8 doses, FIG. 8; for relation of anti-tumor effect to administration dose: 2.5 vs 5 mg/kg i.p. BIW; for inhibitory effect on tumor growth compared with 900698 and Oleclumab: antibodies at 5 mg/kg, i.p. BIW
Experimental: NPG mice were used to establish an MDA-MB-231 triple-negative breast cancer animal model for assaying the efficacy of the test antibodies. The MDA-MB-231 human breast cancer cells used in this example were incubated in an L-15 medium supplemented with 10% FBS in an incubator at 37° C. without CO2. Before continuous cell culturing for ten generations, about 5.0×10^6 MDA-MB-231 cells were suspended in 100 μL of PBS and then mixed uniformly with an equal volume of Matrigel. The mixture was then inoculated by subcutaneous injection into NPG humanized mice on the right side of the back near the axilla, with an inoculation volume of about 200 μL. The mice were anesthetized with 2%-5% isoflurane prior to the inoculation. On the day of inoculation, 1.0×10^7 PBMCs (100 μL) were injected via the tail vein. When the tumors grew to an average size of about 50-80 mm^3, the […] tumor-bearing mice were randomly divided into 7 groups of 6 based on tumor volume and body weight. […] Oleclumab is an anti-CD73 monoclonal antibody developed by AstraZeneca, currently in Phase 2 clinical trials. The amino acid sequence of the heavy chain of 900201 is as set forth in SEQ ID NO. 43, and the amino acid sequence of the light chain of 900201 is as set forth in SEQ ID NO. 44.

B1: Antibody-drug conjugate 1: 900698 antibody cysteine-conjugated to SN-38 via Mc-VC-PAB-DMEDA-PEG linker, DAR about 7.8 (conjugate)
VH: QVQLVESGGGLVKPGGSLRLSCAASGFTFSKYAMSWIRQAPGKGLEWVAEISSGGGYINYADSVKGRFTISRDNAKNSLYLQMNSLRAEDTAVYYCARAIYYYGSSYNYYAMDYWGQGTTVTVSS
VL: DIQMTQSPSSLSASVGDRVTITCRASQDVGTAEAWYQQKPGKAPKLLIYWASTRHTGVPSRFSGSGSGTDFTLTISSLQPEDFATYYCQQYSSYPLTFGQGTKLEIK
inhibition of growth of MDA-MB-231 breast cancer: significantly inhibit the growth | relation of anti-tumor effect to administration dose: positively correlated with the administration dose | inhibitory effect on tumor growth compared with 900698 and Oleclumab: significantly superior

B2: Antibody-drug conjugate 2: 900698 antibody cysteine-conjugated to SN-38 via MP2-VC-PAB-DMEDA-PEG linker, DAR about 7.8 (conjugate)
VH: B1 VH
VL: B1 VL
inhibition of growth of MDA-MB-231 breast cancer: significantly inhibit the growth | relation of anti-tumor effect to administration dose: positively correlated with the administration dose | inhibitory effect on tumor growth compared with 900698 and Oleclumab: significantly superior
